Assay [1] concerns the target T1, alpha-synuclein aggregates (human alpha-synuclein, fibril) (human, UniProt P37840 1-140). Description: SPR (BIAcore T200), antibody captured on protein A chip, 1:1 model. (In general: In SPR one partner is held on a chip, and binding of the other changes the refractive index at the surface.)
The target of assay [2] is T1, alpha-synuclein aggregates (human …). Description: sandwich ELISA: antibody coated at 0.04 to 400 nM, 2000 ng/ml alpha-synuclein aggregates, biotin-conjugated antibody and HRP-streptavidin; value is C of the 4-P fit table under the plot, which the text calls EC50. On the technique in general: An ELISA detects its analyte on a solid surface through an enzyme-linked reagent.

The target is the same in assay [3]. The assay is described as follows: SPR (BIAcore T200), antibody captured on Protein A chip, alpha-synuclein fibril as analyte (file ProteinA-Fibril-main-5th), 25 C, fit 1:1 Binding.
Assay [4] concerns the target T2, monkey IGF1R, recombinant, His tag at C-terminus (monkey).
T2 construct: also called Monkey IGF1R (National Research Council Canada)
The assay is described as follows: ELISA, monkey IGF1R coated, anti-human Fab HRP.

The target in assay [5] is T1, alpha-synuclein aggregates (human …). Description: ELISA on alpha-synuclein aggregates coated at 1 ug/ml, antibody 5-fold dilutions from 400 nM, anti-human Fc-HRP; value is C of the 4-P fit table under the plot.
Assay [6] shares this target. The assay is described as follows: ELISA on coated alpha-synuclein aggregates, antibody 5-fold dilutions from 400 nM, anti-human Fc-HRP; value is C of the 4-P fit table under the plot.
Assay [7] has as its target T3, human IGF1R, endogenous, on the surface of breast cancer cell lines (MCF-7, JIMT-1, BT474) (human, UniProt P08069 31-1367).
T3 construct: also called endogenous IGF1R on the cell surface; MCF-7 cell line
Description: FACS on MCF-7 cells, antibody 10 ug/mL (2nd Ab only 2.86, not treated 1.88).

The target in assay [8] is T1, alpha-synuclein aggregates (human …). Description: SPR (BIAcore T200), antibody captured on Protein A chip, alpha-synuclein fibril as analyte (file ProteinA-Fibril-main-5th), 25 C, fit 1:1 Binding. The source holds these as a separate data set.
Assay [9] has the same target. Described as above. This is another data set of the same source.
Assay [10] has the same target. Description: sandwich ELISA, antibody coated, aggregates 2000 ng/ml.
In assay [11] the target is T4, human IGF1R extracellular domain, recombinant, His tag at C-terminus (human, UniProt P08069 31-932).
T4 construct: also called human IGF1R ECD; ECD of IGF1R
Description: ELISA on coated IGF1R, antibody 5-fold dilutions from 400 nM, anti-human Fc-HRP; C of the 4-P fit (D 2.68), extrapolated: curve at baseline up to about 3 nM, about 0.8 at 80 nM and about 1.75 at 400 nM, no plateau; the text says this monospecific antibody did not bind.

In assay [12] the target is T5, mouse IGF1R on bEND.3 mouse brain endothelial cells (mouse, UniProt Q60751 31-1373).
T5 construct: whole, on cells; also called IGF1R expressed on the surface of brain endothelial cells
The assay is described as follows: FACS on bEND.3 mouse brain endothelial cells.

Assay [13] addresses T4, human IGF1R extracellular domain, …. Description: ELISA on coated IGF1R, antibody 5-fold dilutions from 400 nM, anti-human Fc-HRP; C of the 4-P fit (D 0.945, R^2 0.985), extrapolated: curve at baseline up to 16 nM, about 0.2 at 80 nM and about 0.75 at 400 nM, no plateau; the text says this monospecific antibody did not bind.
Assay [14] shares this target. Description: SPR (Biacore T200), His-tagged human IGF1R ECD captured by anti-His antibody on CM4 chip, 1564 IgG as analyte, 25 C, fit Bivalent Analyte; lower panel.
Assay [15] shares this target. Description: ELISA, human IGF1R coated, anti-human Fab HRP.
The target is the same in assay [16]. Description: SPR (Biacore T200), His-tagged human IGF1R ECD captured by anti-his antibody on CM4 chip, bivalent model.
The target is the same in assay [17]. Description: SPR (Biacore T200), His-tagged human IGF1R ECD captured by anti-His antibody on CM4 chip, 1564 IgG as analyte, 25 C, fit Bivalent Analyte; upper panel.

Here are results for 7 molecules from patent US20220348665A1 (ABL BIO, published 2022).

What is called EC50 is the midpoint of the concentration-response curve. As usually defined, the koff is the first-order rate constant of dissociation. Usually kon stands for the rate constant with which the complex forms.

“And” between values parts separate entries of the source, which are not always exact repeats. Identical values can stand only once. Like-named read-outs stand apart in the source and are kept apart here.

T5 sequence (Q60751 31-1373): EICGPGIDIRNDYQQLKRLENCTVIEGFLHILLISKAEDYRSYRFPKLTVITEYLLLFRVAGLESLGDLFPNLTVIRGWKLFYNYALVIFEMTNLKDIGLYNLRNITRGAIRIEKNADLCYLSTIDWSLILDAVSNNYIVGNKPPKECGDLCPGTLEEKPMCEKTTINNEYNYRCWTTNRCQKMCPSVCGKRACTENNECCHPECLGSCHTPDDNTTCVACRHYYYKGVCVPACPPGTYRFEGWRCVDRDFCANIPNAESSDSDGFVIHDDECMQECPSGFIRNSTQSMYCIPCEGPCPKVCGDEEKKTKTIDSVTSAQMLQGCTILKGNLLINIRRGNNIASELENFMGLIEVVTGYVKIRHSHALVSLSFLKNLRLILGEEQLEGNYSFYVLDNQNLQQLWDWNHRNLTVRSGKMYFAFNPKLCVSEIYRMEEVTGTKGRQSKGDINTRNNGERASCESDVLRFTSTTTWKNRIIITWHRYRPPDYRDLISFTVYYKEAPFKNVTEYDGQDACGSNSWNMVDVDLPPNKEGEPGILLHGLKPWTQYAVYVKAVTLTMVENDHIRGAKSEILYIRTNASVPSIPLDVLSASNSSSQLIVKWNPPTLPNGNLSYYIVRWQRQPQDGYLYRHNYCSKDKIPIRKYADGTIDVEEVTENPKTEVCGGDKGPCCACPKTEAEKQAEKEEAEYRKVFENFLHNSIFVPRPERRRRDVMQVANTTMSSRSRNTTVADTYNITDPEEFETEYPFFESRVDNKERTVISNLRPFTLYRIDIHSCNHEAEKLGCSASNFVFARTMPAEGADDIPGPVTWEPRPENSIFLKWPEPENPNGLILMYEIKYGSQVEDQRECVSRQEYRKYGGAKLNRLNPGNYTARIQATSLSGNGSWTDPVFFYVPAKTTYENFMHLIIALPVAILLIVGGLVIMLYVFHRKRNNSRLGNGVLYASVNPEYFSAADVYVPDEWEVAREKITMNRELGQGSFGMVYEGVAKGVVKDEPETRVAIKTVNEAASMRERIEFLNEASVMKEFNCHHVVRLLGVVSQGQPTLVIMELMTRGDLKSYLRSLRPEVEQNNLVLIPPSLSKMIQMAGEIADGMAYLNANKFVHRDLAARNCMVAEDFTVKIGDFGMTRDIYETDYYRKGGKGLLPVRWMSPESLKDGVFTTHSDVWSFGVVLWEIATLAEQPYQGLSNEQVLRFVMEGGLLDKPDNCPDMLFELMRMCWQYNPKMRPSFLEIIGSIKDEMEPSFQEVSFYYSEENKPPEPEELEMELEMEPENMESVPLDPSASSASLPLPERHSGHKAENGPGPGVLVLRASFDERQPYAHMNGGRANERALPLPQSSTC

B1: hu11F11(ver.4) (antibody, human IgG1, V domains shown)
VH: EVQLVESGGGLVQPGGSLRLSCATSGFTFSDFYMEWVRQPPGKRLEWIAASRNKANDYTTEYSASVKGRFTVSRDTSKSSLYLQMNSLRAEDTAIYYCARDAHGKPFAYWGQGTTVTVSS
VL: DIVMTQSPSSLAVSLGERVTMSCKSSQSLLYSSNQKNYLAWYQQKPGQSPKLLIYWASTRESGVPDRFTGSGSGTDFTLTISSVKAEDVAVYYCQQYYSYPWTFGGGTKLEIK
notes: Human IgG1 backbone
As for B1, the Kd in assay [1] is 0.0204 nM. This molecule also came in with a concentration for a half-maximal effect (EC50) in assay [2] of 12.9 nM. In [3], this molecule gave a koff of 0.000291 s⁻¹ and a kon of 1.07e+06 M⁻¹ s⁻¹.

B2: ch11F11-1564 (bivalent bispecific antibody: chimeric 11F11 IgG with 1564 scFv on each heavy chain) (bispecific antibody, not shown: a dimerising Fc or GST)
heavy (part 1 of 2): EVQLQESGGGLVQPGGSLRLSCATSGFTFSDFYMEWVRQPPGKRLEWIAASRNKANDYTTEYSASVKGRFIVSRDTSQSILYLQMNALRAEDTAIYYCARDAHGKPFAYWGQGTLVTVSA
heavy (part 2 of 2): GGGGSGGGGSGGGGSQSVLTQPPSASGTPGQRVTISCTGSSSNIGSNDVSWYQQLPGTAPKLLIYANSNRPSGVSDRFSGSKSGTSASLAISGLRSEDEADYYCGAWDDSLNGYVFGCGTKLTVLGGGGSGGGGSGGGGSGGGGSEVQLLESGGGLVQPGGSLRLSCAASGFTFSSYDMSWVRQAPGKCLEWVSAISYDNGNTYYADSVKGRFTISRDNSKNTLYLQMNSLRAEDTAVYYCAKGVLTTLMNWFDYWGQGTLVTVSS
light: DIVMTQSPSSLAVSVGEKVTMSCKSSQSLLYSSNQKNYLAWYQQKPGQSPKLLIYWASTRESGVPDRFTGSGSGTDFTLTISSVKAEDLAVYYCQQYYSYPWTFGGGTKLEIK
For the molecule B2, the EC50 in [4] is 2.48 nM and 2.21 nM; in assay [5] it was 22.7 nM; in assay [6] it was 1.5 nM.

B3: hu11F11(ver.2) (antibody, human IgG1, kappa, V domains shown)
VH: EVQLVESGGGLVQPGGSLRLSCATSGFTFSDFYMEWVRQPPGKRLEWIAASRNKANDYTTEYSASVKGRFTVSRDDSKSSLYLQMNSLRAEDTAIYYCARDAHGKPFAYWGQGTTVTVSS
VL: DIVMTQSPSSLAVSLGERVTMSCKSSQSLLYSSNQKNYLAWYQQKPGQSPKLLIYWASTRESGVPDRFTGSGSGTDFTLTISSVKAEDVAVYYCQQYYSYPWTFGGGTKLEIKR
notes: also called hu11F11 WT; humanized antibody 11F11 (ver. 2)
As to B3, the Kd in assay [1] came out at 0.0596 nM. Further, in assay [2], the EC50 came out at 15.1 nM. Also, the “GeoMean, Internalization at 37° C.” value in assay [7] was determined as 3.18. For the same molecule, in assay [8], the koff was determined as 0.000173 s⁻¹ and the kon turned out to be 1.19e+06 M⁻¹ s⁻¹.

B4: hu11F11(ver.1) (antibody, human IgG1, V domains shown)
VH: EVQLVESGGGLVQPGGSLRLSCATSGFTFSDFYMEWVRQPPGKRLEWIAASRNKANDYTTEYSASVKGRFTISRDDSKSSLYLQMNSLRAEDTAIYYCARDAHGKPFAYWGQGTTVTVSS
VL: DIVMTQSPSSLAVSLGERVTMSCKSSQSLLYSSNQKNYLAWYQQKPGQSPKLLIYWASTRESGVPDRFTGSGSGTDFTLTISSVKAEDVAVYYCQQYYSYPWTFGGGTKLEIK
notes: Human IgG1 backbone
In assay [9], B4 had a koff of 5.36e-05 s⁻¹ and a kon of 845000 M⁻¹ s⁻¹. In assay [2], this molecule came in with an EC50 of 11.5 nM.

B5: hu11F11(ver.3) (antibody, human IgG1, V domains shown)
VH: EVQLVESGGGLVQPGGSLRLSCATSGFTFSDFYMEWVRQPPGKRLEWIAASRNKANDYTTEYSASVKGRFTISRDTSKSSLYLQMNSLRAEDTAIYYCARDAHGKPFAYWGQGTTVTVSS
VL: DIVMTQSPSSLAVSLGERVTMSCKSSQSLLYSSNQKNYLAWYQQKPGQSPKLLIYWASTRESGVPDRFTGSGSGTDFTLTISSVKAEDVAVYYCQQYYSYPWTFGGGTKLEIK
notes: Human IgG1 backbone
In [1], B5 returned a Kd of 0.0316 nM. Besides, the EC50 in [2] came to 13.4 nM. In assay [8], this molecule gave a dissociation rate constant (koff) of 0.000266 s⁻¹ and a kon of 1.07e+06 M⁻¹ s⁻¹.

B6: Ch11F11 (chimeric 11F11 antibody, human IgG1) (antibody, V domains shown)
VH: EVQLQESGGGLVQPGGSLRLSCATSGFTFSDFYMEWVRQPPGKRLEWIAASRNKANDYTTEYSASVKGRFIVSRDTSQSILYLQMNALRAEDTAIYYCARDAHGKPFAYWGQGTLVTVSA
VL: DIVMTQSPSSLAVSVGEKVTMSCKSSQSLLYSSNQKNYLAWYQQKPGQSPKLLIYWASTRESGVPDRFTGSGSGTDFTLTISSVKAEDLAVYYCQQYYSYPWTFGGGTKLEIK
notes: Chimeric human IgG1
Take B6: the EC50 in assay [10] is 12.5 nM; in [11] it was 201 nM; in assay [13], 196 nM; in assay [5] it was 33.8 nM; in assay [6], 1.27 nM. The molecule also gave a koff in assay [9] of 0.000563 s⁻¹. The molecule also gave a kon in [9] of 609000 M⁻¹ s⁻¹. In assay [1], this molecule showed a Kd of 0.0247 nM. In addition, the binding result in [12] was “no binding”.

B7: 1564 IgG (anti-IGF1R clone 1564, full IgG1 form) (antibody, V domains shown)
VH: EVQLLESGGGLVQPGGSLRLSCAASGFTFSSYDMSWVRQAPGKGLEWVSAISYDNGNTYYADSVKGRFTISRDNSKNTLYLQMNSLRAEDTAVYYCAKGVLTTLMNWFDYWGQGTLVTVSS
VL: QSVLTQPPSASGTPGQRVTISCTGSSSNIGSNDVSWYQQLPGTAPKLLIYANSNRPSGVPDRFSGSKSGTSASLAISGLRSEDEADYYCGAWDDSLNGYVFGGGTKLTVL
In the case of B7, the koff in [14] was 2.53e-06 s⁻¹. The EC50 in [15] worked out at 0.0823 nM. Further, the Kd in assay [16] was 2.53 nM. In assay [17], the koff is 2.41e-06 s⁻¹ and the association rate constant (kon) was found to be 902 M⁻¹ s⁻¹.
